This is an account of results in article PMC2810717.

Substrate in the series: CC(=O)NCCCNCCCCNCCCN
Briefly: purified protein. The note with it: FAD; pH 8.3; 25.0 °C. In kind it is biochemical, Homo sapiens.

B1: spermine oxidase (SMO) (Homo sapiens) (protein)
chain: MQSCESSGDSADDPLSRGLRRRGQPRVVVIGAGLAGLAAAKALLEQGFTDVTVLEASSHIGGRVQSVKLGHATFELGATWIHGSHGNPIYHLAEANGLLEETTDGERSVGRISLYSKNGVACYLTNHGRRIPKDVVEEFSDLYNEVYNLTQEFFRHDKPVNAESQNSVGVFTREEVRNRIRNDPDDPEATKRLKLAMIQQYLKVESCESSSHSMDEVSLSAFGEWTEIPGAHHIIPSGFMRVVELLAEGIPAHVIQLGKPVRCIHWDQASARPRGPEIEPRGEGDHNHDTGEGGQGGEEPRGGRWDEDEQWSVVVECEDCELIPADHVIVTVSLGVLKRQYTSFFRPGLPTEKVAAIHRLGIGTTDKIFLEFEEPFWGPECNSLQFVWEDEAESHTLTYPPELWYRKICGFDVLYPPERYGHVLSGWICGEEALVMEKCDDEAVAEICTEMLRQFTGNPNIPKPRRILRSAWGSNPYFRGSYSYTQVGSSGADVEKLAKPLPYTESSKTAPMQVLFSGEATHRKYYSTTHGALLSGQREAARLIEMYRDLFQQGT
Regarding B1, the Km stood at 492 ± 97 µM.
